Test results from patent publication US20220127642A1, “CONTROLLABLE GENOME EDITING SYSTEM” (APPLIED STEMCELL, INC., priority 2019, published 2022).
Substitutions are numbered along the chain they refer to. “Also recorded” adds a separate entry of the source.

B1: M2: tetracycline aptamer domain M2 (SEQ ID NO: 16) controlling splicing of a conditional exon in SaCas9 gene (nucleic acid)
chain: TTTCAGGCGCTAAAACATACCAGATGAAAGTCTGGAGAGGTGAAGAATACGACCACCTAGCGCCTGAAA
modifications: listed as DNA, chemistry not fully specified
B2: M3: tetracycline aptamer domain M3 (SEQ ID NO: 18) controlling splicing of a conditional exon in SaCas9 gene (nucleic acid)
chain: B1 chain with T11C, A59G
modifications: listed as DNA, chemistry not fully specified

Test system: sgRNA target sequence in pCAG-EGxxFP plasmid, HEK293T cells
Test: EGxxFP assay of candidate SaCas9 constructs (reconstituted EGFP expression)
Assay type: cell-based
Conditions: tetracycline aptamer and conditional exon inserted in position 2 and 8; FIG. 9
Description: The activity of candidate SaCas9 genes were then tested in an EGxxFP assay as described by Mashiko D et al. (see Sci Rep (2013) 3:3355). In short, the pCAG-EGxxFP plasmid containing 5′ and 3′ EGFP fragments that shares 482 bp under ubiquitous CAG promoter was prepared. An approximately 500 bp region containing the sgRNA target sequence was placed between EGFP fragments of pCAG-EGxxFP plasmid. The pCAG-EGxxFP plasmid was cotransfected with the candidate SaCas9 construct and sgRNA into HEK293T cells. When the candidate SaCas9 gene is properly transcribed and spliced, the target sequence in the EGxxFT gene was digested by sgRNA guided SaCas9 protein, the homologous dependent repair took place and reconstituted the EGFP expression.

Molecule | regulating the expression of SaCas9 (EGxxFP assay)
B1 | worked well; also recorded: performed the best
B2 | worked well
